This passage reports stoichiometry N results from article PMC7311918.

Usually stoichiometry N stands for a count of units in the complex or per binding partner.

The target in assay [1] is SARS-CoV S 2P trimer (S ectodomain, residues 12-1193) (SARS-CoV) (UniProt P59594). The assay is described as follows: SEC-MALS. (In general: SEC sorts molecules by how far they enter the pores of the column.)
In assay [2] the target is MERS-CoV S 2P trimer (S ectodomain, residues 19-1294) (MERS-CoV) (UniProt K9N5Q8). The assay is described as follows: SEC-MALS.

Regarding “SARS-CoV S 2P trimer (S ectodomain, residues 12-1193) (from UniProt P59594 12-1193) (natural protein)”, in assay [1], the stoichiometry N was 3.

In the case of “MERS-CoV S 2P trimer (S ectodomain, residues 19-1294) (from UniProt K9N5Q8 19-1294) (natural protein)”, in assay [2], the stoichiometry N came out at 3.
